Data published in US11325952B2, “Light-gated signaling modulation” (Korea University Research and Business Foundation, priority 2016, dated 2022).

B1: BLITz-1: AsLOV2 Jα-helix C-terminal deletion variant with inserted TEV cleavage sequence, in TM-CIBN-TEV-N-AsLOV2-TEVseq-tTA fusion protein (protein)
chain: EFLATTLERIEKNFVITDPRLPDNPIIFASDSFLQLTEYSREEILGRNCRFLQGPETDRATVRKIRDAIDNQTEVTVQLINYTKSGKKFWNVFHLQPMRDYKGDVQYFIGVQLDGTERLHGAAEREAVCLIKKTAFQIA
modifications: BLITz-1 AsLOV2 (1-139 A.A.)
B2: BLITz-6: AsLOV2 Jα-helix C-terminal deletion variant with TEVseq; selected for the neuromodulation mapping system (protein)
chain: EFLATTLERIEKNFVITDPRLPDNPIIFASDSFLQLTEYSREEILGRNCRFLQGPETDRATVRKIRDAIDNQTEVTVQLINYTKSGKKFWNVFHLQPMRDYKGDVQYFIGVQLDGTERLHGAAEREAVCLIKKTAFQI
modifications: BLITz-6 AsLOV2 (1-138 A.A.)

What was measured:
[1] = test system: hippocampal culture neurons; test: Cal-Light test in dissociated hippocampal culture neurons (EGFP reporter); format: cell-based, rat
cortical slice culture = test: Cal-Light test in cortical slice culture (EGFP reporter); format: cell-based; settings: further increase of neuronal activity by bicuculine application
Source text: FIG. 18. Cal-Light test in cortical slice culture. AAV expressing Cal-Light constructs and EGFP reporter were infected to cortical slice culture at DIV3 (Days in vitro). […] Examples of action potentials were plotted at the top left panel. Electrical stimulation reliably triggered action potentials measured in layer 2/3 pyramidal neurons. Two days later, slices were fixed and images were taken by confocal microscopy. […] Blue light or high frequency stimuli alone was not able to increase the level of EGFP expression.
[…] Cortical slice culture were made at postnatal day 3 and AAV expressing Cal-Light constructs including an EGFP reporter were infected to slices at DIV 3 (Days in vitro). After 12 days of expression, a bipolar stimulation electrode was placed in layer 2/3. […] This stimulation protocol was repeated 30 times, resulting in triggering about 300 action potentials in total. Two days later, slices were fixed and gene expression pattern was imaged by confocal microscopy.

HEK293T cells [2] = test: SEAP chemiluminescent assay of BLITz constructs, light-induced gene expression; format: cell-based; settings: for light-induced gene expression: blue light; for background (baseline) gene expression level: dark state
Protocol: HEK293T cells were grown in high glucose Dulbecco's Modified Eagle Medium (DMEM) (Gibco, CA, USA) containing 10% fetal bovine serum (Cat #10438-018, Gibco) and 1% penicillin-streptomycin (Invitrogen, NY, USA). Cells were incubated at 37° C. and under 10% CO2 conditions. For the experiment, all dishes and coverslip were pre-coated with a 1 mg/ml Poly-D-Lysine hydrobromide (Cat #P0899, Sigma-Aldrich, St. Louis, Mo., USA) solution for 2 hrs. After 0.25% trypsin (Cat #25200, Gibco) treatment for 2 min, detached cells were collected and the total cell numbers were counted. Dissociated cells were plated at 2×10^5 cells per 12 mm coverslip. 24 hrs later, DNA plasmid vectors were transfected using the calcium phosphate transfection kit (Clontech, CA, USA). The mixture of the DNA solution was slowly added into 2× Hepes Buffered Saline. After 1 hr incubation, precipitated solutions were added into each well.
Blue light was illuminated by 465 nm wavelength blue LED array (LED wholesalers, Hayward, Calif., USA) that was controlled by a high-accuracy digital electronic timer (Model 451, GraLab, Centerville, Ohio, USA). The LED array was installed inside the 37° C. and 10% CO2 incubator. One transparent blank plate with 2 cm height was inserted between the LED source and the sample to inhibit potential undesirable heating caused by the direct contact of the LED. In the experimental setup, the power of blue light at the specimen was 1.7 mW, measured by a power meter (PM100D, ThorLabs, Newton, N.J., USA). To make a dark condition, all lights were prevented by wrapping culture plates with an aluminum foil, and all experimental procedures were carried out under dim red light.
For the quantification of gene-expression levels, a secreted embryonic alkaline phosphatase (SEAP) chemiluminescent assay was used. All reagents for the SEAP assay were purchased from InvivoGen (San Diego, Calif., USA). 40 μl of sample was collected from the medium of each well and transferred into 96-wells plate. Samples were pre-heated in a 60° C. incubator for 10 m to inhibit the activity of endogenous alkaline phosphatase. All mixtures were added into a single master tube including SEAP substrates and L-homoarginine. The mixed solutions were carefully added into each sample onto 96-wells plate without bubbles. The chemiluminescence of each sample was measured by a micro-plate reader (SpectraMax Plus 384, Molecular Devices, Sunnyvale, Calif., USA) at 37° C. at 405 nm. Assays were made at every 30 s for 2 hrs. All data and the calculation of Vmax were acquired by a SoftMax Pro 5.4.1 (Molecular Devices).
Thus, to prevent access by TEV protease in the dark state, but to allow complete access upon blue light illumination, the C-terminal region of the Jα-helix on AsLOV2 with the TEVseq was modified (FIG. 1a, b). […]

HEK293T cells [3] = test: EGFP expression reporter assay of BLITz constructs; format: cell-based; settings: dark vs blue light
Source text: FIG. 1: Development of BLITz system. (a) Schematic drawing of BLITz proteins and simple diagram of light-induced gene expression. The major protein body, TM-CIBN-TEV-N-AsLOV2-TEVseq-TetR-VP16 (tTA), is targeted to a membrane with a transmembrane domain (TM). CRY2PHR-TEV-C is localized in the cytosol. Blue light causes interaction of CRY2PHR with CIBN, and TEV-C and TEV-N subsequently interact with each other. At the same time, TEVseq is unmasked due to conformational changes of AsLOV2 Jα-helix. When these two light-dependent processes are satisfied, TEVseq cleaves TetR-VP16, which translocates to the nucleus and causes targeted gene expression. (b) Design of TEVseq insertion into Jα-helix. […]
HEK293T cells were grown in high glucose Dulbecco's Modified Eagle Medium (DMEM) (Gibco, CA, USA) containing 10% fetal bovine serum (Cat #10438-018, Gibco) and 1% penicillin-streptomycin (Invitrogen, NY, USA). […] After 0.25% trypsin (Cat #25200, Gibco) treatment for 2 min, detached cells were collected and the total cell numbers were counted. […]
Blue light was illuminated by 465 nm wavelength blue LED array (LED wholesalers, Hayward, Calif., USA) that was controlled by a high-accuracy digital electronic timer (Model 451, GraLab, Centerville, Ohio, USA). […] In the experimental setup, the power of blue light at the specimen was 1.7 mW, measured by a power meter (PM100D, ThorLabs, Newton, N.J., USA). […]

Row | Molecule | reporter EGFP gene expression level [1] | EGFP expression (cortical slice culture) | light-induced gene expression (HEK293T cells [2]) | background (baseline) gene expression level (HEK293T cells [2]) | EGFP signals (HEK293T cells [3])
1 | NC1=N[C@H](O)[C@H]2[C@H]3O[C@]4(O)O[C@@H]([C@@H](O)[C@@]2(N1)[C@@H]4O)[C@]3(O)CO [TTX, tetrodotoxin] | kept low | – | – | – | –
2 | CN1CCc2cc3c(cc2[C@H]1[C@@H]1OC(=O)c2c1ccc1c2OCO1)OCO3 [bicuculine] | – | significant increase | – | – | –
3 | B1 | – | – | high | completely abolished | detected only when blue light was illuminated
4 | B2 | – | – | high | completely abolished | detected only when blue light was illuminated
